In US20200308270A1 (Zymeworks, published 2020):
Substitutions are numbered along the chain they refer to. Numbers in names are those of the source.

Legend:
[1] = target: T1, human recombinant FcRn (human, UniProt P55899 24-297; P61769 21-119, limits assumed); assay: SPR (ProteOn), FcRn immobilized, Mab analyte, pH 5.8
T1 construct: also called neonatal receptor
Method: FcRn affinity determination was carried out as follows. FcRn surface was generated using a GLC sensorchip activated by a 1:10 dilution of the standard BioRad sNHS/EDC solutions injected for 140s at 100 μL/min in the ligand (vertical) direction. Immediately after the activation, 10 microg/mL solution of FcRn in 10 mM NaOAc pH 4.5 was injected in the ligand (vertical) direction at a flow rate of 25 microL/min for 120s until approximately 2000 resonance units (RUs) were immobilized. Remaining active groups were quenched by a 140s injection of 1M ethanolamine at 30 μL/min also in the ligand direction. The running buffer used on the FcRn surface was PBST pH 5.8. The screening of the Mabs for binding to FcRn was performed by injection of purified Mabs in the analyte (horizontal) direction. Firstly, two buffer injections for 30s at 100 microL/min in the analyte (horizontal) direction were used to stabilize the baseline. Five concentrations of a three-fold dilution series of each Mab starting at 100 nM with a blank buffer control were simultaneously injected at 50 microL/min for 120 s with a 10 minute dissociation phase, resulting in a set of binding sensorgrams with a buffer reference. […] Sensorgrams were aligned and double-referenced using the buffer blank injection and interspots, and the resulting sensorgrams were analyzed using ProteOn Manager software v3.1. The double-referenced sensorgrams were fit to the Langmuir binding model.

[2] = target: T2, recombinant human IL-17A (human, UniProt Q16552 20-155, limits assumed); assay: SPR (ProteOn), IL-17A immobilized, Mab analyte
T2 construct: Bought reagent
T2 sequence (Q16552 20-155 limits assumed): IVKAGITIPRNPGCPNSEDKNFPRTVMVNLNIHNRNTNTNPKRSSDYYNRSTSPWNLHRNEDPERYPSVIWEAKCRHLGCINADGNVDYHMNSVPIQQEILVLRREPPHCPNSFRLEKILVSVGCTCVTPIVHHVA
Method: (§1) IL-17 affinity determination was carried out as follows. The IL-17A surface was generated using a GLC sensorchip activated by a 1:10 dilution of the standard BioRad sNHS/EDC solutions injected for 140s at 100 pt/min in the ligand (vertical) direction. Immediately after the activation, 1 to 4 microg/mL solution of IL-17A in 10 mM NaOAc pH 4.5 was injected in the ligand (vertical) direction at a flow rate of 25 or 100 microL/min until approximately 75-200 resonance units (RUs) were immobilized. Remaining active groups were quenched by a 140s injection of 1M ethanolamine at 100 μL/min also in the ligand direction. […] Firstly, two buffer injections for 30s at 100 microL/min in the analyte (horizontal) direction were used to stabilize the baseline. […] Sensorgrams were aligned and double-referenced using the buffer blank injection and interspots, and the resulting sensorgrams were analyzed using ProteOn Manager software v3.1. The double-referenced sensorgrams were fit to the Langmuir binding model.

[3] = target: T3, human recombinant FcgammaR receptor CD32aR (human, UniProt P12318 34-217, limits assumed); assay: SPR (ProteOn), Mab captured via anti-human Fc, FcgammaR analyte
T3 sequence (looked up): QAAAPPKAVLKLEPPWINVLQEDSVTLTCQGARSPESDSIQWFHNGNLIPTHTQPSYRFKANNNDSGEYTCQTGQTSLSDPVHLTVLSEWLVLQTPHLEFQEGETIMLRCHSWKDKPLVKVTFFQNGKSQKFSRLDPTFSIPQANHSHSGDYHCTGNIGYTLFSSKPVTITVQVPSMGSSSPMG
Method: (§2) Goat polyclonal anti-human Fc antibody was purchased from Jackson Immuno Research Laboratories Inc. (West Grove, Pa.). […] Human recombinant FcγR receptors: CD16aV, CD32bF, CD32aR, and CD32aH were expressed as constructs containing a His10-tag at the C-terminus and purified by Ni-affinity chromatography followed by His-tag removal and SEC purification.
(§3) FcγR affinity determination was carried out as follows. The screening of Mabs for binding to various FcγR receptors occurred in two steps: an indirect capture of Mab samples onto the anti-human Fc-specific polyclonal antibody surface, followed by the injection of five concentrations of each of FcγR receptors. The anti-human Fc surface was prepared on a GLC sensorchip by amine coupling. GLC sensorchip surface was activated by a 1:10 dilution of the standard BioRad sNHS/EDC solutions injected for 140s at 100 μL/min in the analyte (horizontal) direction. Immediately after the activation, 25 microg/mL solution of anti-human Fc in 10 mM NaOAc pH 4.5 was injected in the analyte direction at a flow rate of 25 microL/min for 240s until approximately 4500 or 2500 resonance units (RUs) were immobilized. Remaining active groups were quenched by a 300s injection of 1M ethanolamine at 30 μL/min also in the analyte direction. Mabs for analysis were indirectly captured onto the anti-human Fc surface by injecting 10 microg/ml solutions in the ligand (vertical) direction at a flow rate of 25 microL/min for 240s. Each of the FcγR receptors was subsequently injected in the analyte (horizontal) direction. Firstly, two buffer injections for 30s at 100 microL/min in the analyte (horizontal) direction were used to stabilize the baseline. Five concentrations of a three-fold dilution series of each of the four FcγR receptors starting at 10 μM with a blank buffer control were then simultaneously injected at 50 microL/min for 120 s with a 3 minute dissociation phase, resulting in a set of binding sensorgrams with a buffer reference. […] Sensorgrams were aligned and double-referenced using the buffer blank injection and interspots, and the resulting sensorgrams were analyzed using ProteOn Manager software v3.1.

[4] = target: human recombinant FcgammaR receptor CD16aV (human, UniProt P08637 17-208, limits assumed); assay: as above
human recombinant FcgammaR receptor CD16aV, sequence (P08637 17-208 F176V limits assumed): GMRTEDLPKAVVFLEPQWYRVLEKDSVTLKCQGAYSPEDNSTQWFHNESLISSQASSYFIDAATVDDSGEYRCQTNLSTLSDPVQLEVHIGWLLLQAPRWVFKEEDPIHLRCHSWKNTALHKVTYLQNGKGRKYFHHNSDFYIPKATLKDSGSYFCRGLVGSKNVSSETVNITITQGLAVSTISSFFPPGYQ
Method: as §2, §3

[5] = target: T4, recombinant human HER3 (human, UniProt P21860 20-643); assay: SPR (Biacore T200), HER3 captured via anti-His, Fab analyte;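 also: single cycle kinetics with five Fab concentrations, referenced against a blank flow cell and mock-buffer injections, sensorgrams fit to a 1:1 binding model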
T4 construct: Bought reagent
Method: HER3 affinity determination in Fabs was carried out as follows. The screening of Fabs (preparative SEC purified) for binding to HER3 antigen occurred in two steps: an indirect capture of HER3 onto the anti-His antibody, followed by the injection of five concentrations of Fabs, for kinetic analysis using single cycle kinetics. […] HER3 was injected at 4-8 μg/mL over the active flow cell for 60 s at a flow rate of 10 μL/min. […] HER3 was not captured on the reference (blank) flow cell. […] The captured HER3 surfaces were regenerated by 10 mM glycine pH 1.5 for 120 s at 30 μL/min to prepare the surfaces for the next injection cycle. At least two mock-buffer injections were performed for each analyte injection and used for referencing. The resulting single cycle kinetics sensorgrams were analyzed using Biacore T200 BiaEvaluation software version 3.0 and fit to the 1:1 binding model.

[6] = target: T2, recombinant human IL-17A; assay: SPR (ProteOn), IL-17A immobilized, Fab analyte;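 also: IL-17A amine-coupled on a GLC sensor chip at roughly 75–200 RU, double-referenced sensorgrams fitted with a Langmuir binding model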
Method: as §1

T1 sequence (P55899 24-297 limits assumed, chain 1 of 2): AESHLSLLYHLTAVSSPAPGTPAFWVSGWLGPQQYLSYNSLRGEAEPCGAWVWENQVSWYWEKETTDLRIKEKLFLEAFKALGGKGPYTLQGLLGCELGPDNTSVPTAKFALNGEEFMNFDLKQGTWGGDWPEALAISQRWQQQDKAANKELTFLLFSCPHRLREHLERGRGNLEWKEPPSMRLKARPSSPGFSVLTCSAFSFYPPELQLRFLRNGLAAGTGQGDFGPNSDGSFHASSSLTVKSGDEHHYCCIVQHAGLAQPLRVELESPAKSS
T1 sequence (P61769 21-119 limits assumed, chain 2 of 2): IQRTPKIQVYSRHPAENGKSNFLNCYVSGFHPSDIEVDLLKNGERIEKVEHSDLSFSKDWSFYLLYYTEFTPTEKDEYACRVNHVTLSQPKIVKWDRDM

B1: CAT-2200 wild-type lambda Mab (antibody, human IgG1, lambda)
heavy: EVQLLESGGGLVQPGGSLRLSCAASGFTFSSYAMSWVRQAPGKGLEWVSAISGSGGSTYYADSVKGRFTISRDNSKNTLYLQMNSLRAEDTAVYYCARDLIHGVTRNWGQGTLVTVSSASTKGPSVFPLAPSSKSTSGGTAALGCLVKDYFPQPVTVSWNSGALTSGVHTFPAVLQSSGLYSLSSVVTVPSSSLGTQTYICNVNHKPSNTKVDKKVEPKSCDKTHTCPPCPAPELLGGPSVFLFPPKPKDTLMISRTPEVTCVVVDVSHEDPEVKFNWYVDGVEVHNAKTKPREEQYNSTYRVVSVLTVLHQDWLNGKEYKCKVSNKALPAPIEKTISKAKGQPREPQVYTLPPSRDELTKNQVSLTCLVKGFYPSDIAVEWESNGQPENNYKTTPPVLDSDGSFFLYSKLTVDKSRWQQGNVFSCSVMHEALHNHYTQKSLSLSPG
light: NFMLTQPHSVSESPGKTVTISCTRSSGSLANYYVQWYQQRPGSSPTIVIFANNQRPSGVPDRFSGSIDSSSNSASLTISGLKTEDEADYYCQTYDPYSVVFGGGTKLTVLGQPKAAPSVTLFPPSSEELQANKATLVCLISDFYPGAVTVAWKADSSPVKAGVETTTPSKQSNNKYAASSYLSLTPEQWKSHRSYSCQVTHEGSTVEKTVAPTECS
notes: IgG1 Mab format; also called WT
Kd [1]: 14.2 nM
Kd [2]: 0.027 nM
Kd [3]: 2400 nM
Kd [4]: 1200 nM

B2: H3 designed Vlambda-Ckappa chimeric Fab, design 29 (E83V_D85T_T105E_V106I) (Fab, name in Kabat numbering, V domains shown)
VH: QVQLQESGGGLVKPGGSLRLSCAASGFTFSSYWMSWVRQAPGKGLEWVANINRDGSASYYVDSVKGRFTISRDDAKNSLYLQMNSLRAEDTAVYYCARDRGVGYFDLWGRGTLVTVSS
VL: QSALTQPASVSGSPGQSITISCTGTSSDVGGYNFVSWYQQHPGKAPKLMIYDVSDRPSGVSDRFSGSKSGNTASLIISGLQADDVATYYCSSYGSSSTHVIFGGGTKVEILR
Kd [5]: 77 nM

B3: H3 wild-type lambda Fab (Fab, V domains shown)
VH: B2 VH
VL: B2 VL with V85E, T87D, E109T, I110V, R112G
notes: Truncated heavy chain (VH-CH1-upper IgG1 hinge) and 'wild-type' lambda light chain (H3 VL + IGLC2); also called WT; H3 Fab
Kd [5]: 92.4 nM

B4: H3 designed Vlambda-Ckappa chimeric Fab, design 34 (E83I_D85T_T105E_V106I) (Fab, name in Kabat numbering, V domains shown)
VH: B2 VH
VL: B2 VL with V85I
Kd [5]: 75.4 nM

B5: H3 designed Vlambda-Ckappa chimeric Fab, design 38 (E83A_D85T_T105E) (Fab, name in Kabat numbering, V domains shown)
VH: B2 VH
VL: B2 VL with V85A, I110V
Kd [5]: 72.2 nM

B6: H3 designed Vlambda-Ckappa chimeric Fab, design 36 (E83A_T105E) (Fab, name in Kabat numbering, V domains shown)
VH: B2 VH
VL: B2 VL with V85A, T87D, I110V
Kd [5]: 66.4 nM

B7: H3 designed Vlambda-Ckappa chimeric Fab, design 33 (E83I_D85T_T105E) (Fab, name in Kabat numbering, V domains shown)
VH: B2 VH
VL: B2 VL with V85I, I110V
Kd [5]: 89 nM

B8: H3 designed Vlambda-Ckappa chimeric Fab, design 30 (E83I) (Fab, name in Kabat numbering, V domains shown)
VH: B2 VH
VL: B2 VL with V85I, T87D, E109T, I110V
Kd [5]: 95.1 nM

B9: H3 designed Vlambda-Ckappa chimeric Fab, design 37 (E83A_D85T) (Fab, name in Kabat numbering, V domains shown)
VH: B2 VH
VL: B2 VL with V85A, E109T, I110V
Kd [5]: 83.5 nM

B10: H3 designed Vlambda-Ckappa chimeric Fab, design 39 (E83A_D85T_T105E_V106I) (Fab, name in Kabat numbering, V domains shown)
VH: B2 VH
VL: B2 VL with V85A
Kd [5]: 89.6 nM

B11: H3 designed Vlambda-Ckappa chimeric Fab, design 31 (E83I_T105E) (Fab, name in Kabat numbering, V domains shown)
VH: B2 VH
VL: B2 VL with V85I, T87D, I110V
Kd [5]: 82.7 nM

B12: H3 designed Vlambda-Ckappa chimeric Fab, design 35 (E83A) (Fab, name in Kabat numbering, V domains shown)
VH: B2 VH
VL: B2 VL with V85A, T87D, E109T, I110V
Kd [5]: 59.1 nM

B13: H3 designed Vlambda-Ckappa chimeric Fab, design 32 (E83I_D85T) (Fab, name in Kabat numbering, V domains shown)
VH: B2 VH
VL: B2 VL with V85I, E109T, I110V
Kd [5]: 83.8 nM

B14: CAT-2200 designed Vlambda-Ckappa chimeric Mab, design 39 (E83A_D85T_T105E_V106I) (antibody, human IgG1, kappa)
heavy: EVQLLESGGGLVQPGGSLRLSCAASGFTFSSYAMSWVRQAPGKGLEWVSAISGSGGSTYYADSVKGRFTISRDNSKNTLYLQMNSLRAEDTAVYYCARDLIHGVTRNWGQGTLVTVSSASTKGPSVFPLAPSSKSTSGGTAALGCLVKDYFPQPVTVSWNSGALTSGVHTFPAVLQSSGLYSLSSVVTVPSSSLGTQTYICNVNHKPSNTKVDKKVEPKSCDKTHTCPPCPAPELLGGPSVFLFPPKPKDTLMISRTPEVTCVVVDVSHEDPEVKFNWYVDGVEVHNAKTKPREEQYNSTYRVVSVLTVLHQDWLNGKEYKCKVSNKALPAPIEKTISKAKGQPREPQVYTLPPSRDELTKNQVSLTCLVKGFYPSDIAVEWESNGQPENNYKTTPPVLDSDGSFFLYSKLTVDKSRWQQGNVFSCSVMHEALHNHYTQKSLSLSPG
light: NFMLTQPHSVSESPGKTVTISCTRSSGSLANYYVQWYQQRPGSSPTIVIFANNQRPSGVPDRFSGSIDSSSNSASLTISGLKTEDAATYYCQTYDPYSVVFGGGTKLEILRTVAAPSVFIFPPSDEQLKSGTASVVCLLNNFYPREAKVQWKVDNALQSGNSQESVTEQDSKDSTYSLSSTLTLSKADYEKHKVYACEVTHQGLSSPVTKSFNRGEC
notes: IgG1 Mab format
Kd [1]: 24.7 nM
Kd [2]: 0.044 nM
Kd [3]: 2400 nM
Kd [4]: 1300 nM

B15: CAT-2200 designed Vlambda-Ckappa chimeric Mab, design 26 (E83V_D85T) (antibody, human IgG1, kappa)
heavy: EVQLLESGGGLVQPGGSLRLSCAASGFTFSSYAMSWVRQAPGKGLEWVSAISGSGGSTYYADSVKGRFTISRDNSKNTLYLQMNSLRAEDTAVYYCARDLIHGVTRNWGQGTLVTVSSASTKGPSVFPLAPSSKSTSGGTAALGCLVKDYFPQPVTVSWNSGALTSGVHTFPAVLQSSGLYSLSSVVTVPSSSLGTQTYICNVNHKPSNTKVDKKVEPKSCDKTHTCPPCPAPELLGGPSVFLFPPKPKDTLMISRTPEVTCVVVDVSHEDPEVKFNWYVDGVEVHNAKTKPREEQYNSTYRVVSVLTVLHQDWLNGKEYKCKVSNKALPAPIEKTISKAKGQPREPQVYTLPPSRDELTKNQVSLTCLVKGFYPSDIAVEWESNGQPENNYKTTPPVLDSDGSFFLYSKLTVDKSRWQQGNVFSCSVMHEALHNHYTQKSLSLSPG
light: B14 light with A86V, E108T, I109V
notes: IgG1 Mab format
Kd [2]: 0.048 nM

B16: CAT-2200 designed Vlambda-Ckappa chimeric Mab, design 18 (E83F_D85T_T105E) (antibody, human IgG1, kappa, V domains shown)
VH: not shown
VL: NFMLTQPHSVSESPGKTVTISCTRSSGSLANYYVQWYQQRPGSSPTIVIFANNQRPSGVPDRFSGSIDSSSNSASLTISGLKTEDFATYYCQTYDPYSVVFGGGTKLEVLR
notes: IgG1 Mab format
Kd [2]: 0.048 nM

B17: CAT-2200 designed Vlambda-Ckappa chimeric Mab, design 34 (E83I_D85T_T105E_V106I) (antibody, human IgG1, kappa)
heavy: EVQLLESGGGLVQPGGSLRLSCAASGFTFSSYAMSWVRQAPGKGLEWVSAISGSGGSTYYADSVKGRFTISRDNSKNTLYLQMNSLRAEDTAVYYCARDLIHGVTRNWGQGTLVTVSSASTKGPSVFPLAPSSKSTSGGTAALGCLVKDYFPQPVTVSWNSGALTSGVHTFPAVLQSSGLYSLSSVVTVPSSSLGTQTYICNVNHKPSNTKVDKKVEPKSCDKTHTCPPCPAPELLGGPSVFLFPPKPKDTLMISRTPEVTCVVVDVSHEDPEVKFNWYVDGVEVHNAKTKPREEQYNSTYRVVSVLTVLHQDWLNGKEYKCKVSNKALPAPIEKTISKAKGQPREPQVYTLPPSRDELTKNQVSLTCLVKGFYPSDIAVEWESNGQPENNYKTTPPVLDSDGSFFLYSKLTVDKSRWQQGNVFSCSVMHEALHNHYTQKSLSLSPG
light: B14 light with A86I
notes: IgG1 Mab format
Kd [2]: 0.053 nM

B18: CAT-2200 designed Vlambda-Ckappa chimeric Mab, design 32 (E83I_D85T) (antibody, human IgG1, kappa)
heavy: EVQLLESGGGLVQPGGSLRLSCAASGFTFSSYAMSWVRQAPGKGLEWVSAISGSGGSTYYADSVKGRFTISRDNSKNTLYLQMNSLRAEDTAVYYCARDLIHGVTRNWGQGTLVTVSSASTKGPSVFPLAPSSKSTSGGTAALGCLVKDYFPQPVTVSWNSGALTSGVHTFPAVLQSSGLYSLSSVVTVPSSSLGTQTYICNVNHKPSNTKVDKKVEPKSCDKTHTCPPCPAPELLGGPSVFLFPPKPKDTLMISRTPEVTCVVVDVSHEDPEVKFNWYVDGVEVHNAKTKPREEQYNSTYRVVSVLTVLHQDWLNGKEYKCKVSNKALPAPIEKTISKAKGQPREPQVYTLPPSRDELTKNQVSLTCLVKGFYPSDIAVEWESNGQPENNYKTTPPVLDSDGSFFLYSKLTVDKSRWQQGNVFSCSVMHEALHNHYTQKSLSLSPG
light: B14 light with A86I, E108T, I109V
notes: IgG1 Mab format
Kd [2]: 0.05 nM

B19: CAT-2200 Vlambda-Ckappa chimeric Mab (antibody, human IgG1, kappa)
heavy: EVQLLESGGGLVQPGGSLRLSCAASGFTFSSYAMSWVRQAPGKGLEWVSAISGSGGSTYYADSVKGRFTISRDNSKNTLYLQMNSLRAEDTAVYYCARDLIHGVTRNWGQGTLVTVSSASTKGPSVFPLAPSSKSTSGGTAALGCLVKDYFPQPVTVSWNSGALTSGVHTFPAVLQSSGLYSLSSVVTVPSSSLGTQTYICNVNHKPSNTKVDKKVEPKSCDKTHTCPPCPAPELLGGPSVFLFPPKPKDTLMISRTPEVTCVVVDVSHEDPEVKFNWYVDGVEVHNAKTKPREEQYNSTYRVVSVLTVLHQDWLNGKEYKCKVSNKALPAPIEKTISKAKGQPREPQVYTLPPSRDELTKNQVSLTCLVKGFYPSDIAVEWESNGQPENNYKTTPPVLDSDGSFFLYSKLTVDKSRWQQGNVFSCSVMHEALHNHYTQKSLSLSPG
light: B14 light with A86E, T88D, E108T, I109V
notes: IgG1 Mab format; chimeric light chain without stabilizing substitutions; also called chimera
Kd [1]: 14.3 nM
Kd [2]: 0.042 nM
Kd [3]: 2500 nM

B20: CAT-2200 designed Vlambda-Ckappa chimeric Fab, design 18 (E83F_D85T_T105E) (Fab, V domains shown)
VH: not shown
VL: B16 VL
Kd [6]: 0.3 nM

B21: CAT-2200 designed Vlambda-Ckappa chimeric Fab, design 33 (E83I_D85T_T105E) (Fab, V domains shown)
VH: not shown
VL: B16 VL with F86I
Kd [6]: 0.3 nM

B22: CAT-2200 designed Vlambda-Ckappa chimeric Fab, design 19 (E83F_D85V_T105E) (Fab, V domains shown)
VH: not shown
VL: B16 VL with T88V
Kd [6]: 0.3 nM

B23: CAT-2200 designed Vlambda-Ckappa chimeric Fab, design 20 (E83F_D85T_T105E_V106I) (Fab, V domains shown)
VH: not shown
VL: B16 VL with V109I
Kd [6]: 0.3 nM

B24: CAT-2200 designed Vlambda-Ckappa chimeric Fab, design 39 (E83A_D85T_T105E_V106I) (Fab, V domains shown)
VH: not shown
VL: B16 VL with F86A, V109I
Kd [6]: 0.2 nM

B25: CAT-2200 designed Vlambda-Ckappa chimeric Fab, design 14 (E83F) (Fab, V domains shown)
VH: not shown
VL: B16 VL with T88D, E108T
Kd [6]: 0.3 nM

B26: CAT-2200 designed Vlambda-Ckappa chimeric Fab, design 21 (E83F_D85V_T105E_V106I) (Fab, V domains shown)
VH: not shown
VL: B16 VL with T88V, V109I
Kd [6]: 0.3 nM

B27: CAT-2200 designed Vlambda-Ckappa chimeric Fab, design 36 (E83A_T105E) (Fab, V domains shown)
VH: not shown
VL: B16 VL with F86A, T88D
Kd [6]: 0.3 nM

B28: CAT-2200 designed Vlambda-Ckappa chimeric Fab, design 28 (E83V_D85V_T105E) (Fab, V domains shown)
VH: not shown
VL: B16 VL with F86V, T88V
Kd [6]: 0.2 nM

B29: CAT-2200 designed Vlambda-Ckappa chimeric Fab, design 29 (E83V_D85T_T105E_V106I) (Fab, V domains shown)
VH: not shown
VL: B16 VL with F86V, V109I
Kd [6]: 0.3 nM

B30: CAT-2200 designed Vlambda-Ckappa chimeric Fab, design 15 (E83F_T105E) (Fab, V domains shown)
VH: not shown
VL: B16 VL with T88D
Kd [6]: 0.3 nM

B31: CAT-2200 designed Vlambda-Ckappa chimeric Fab, design 38 (E83A_D85T_T105E) (Fab, V domains shown)
VH: not shown
VL: B16 VL with F86A
Kd [6]: 0.2 nM

B32: CAT-2200 designed Vlambda-Ckappa chimeric Fab, design 32 (E83I_D85T) (Fab, V domains shown)
VH: not shown
VL: B16 VL with F86I, E108T
Kd [6]: 0.3 nM

B33: CAT-2200 designed Vlambda-Ckappa chimeric Fab, design 30 (E83I) (Fab, V domains shown)
VH: not shown
VL: B16 VL with F86I, T88D, E108T
Kd [6]: 0.3 nM

B34: CAT-2200 designed Vlambda-Ckappa chimeric Fab, design 24 (E83V_T105E) (Fab, V domains shown)
VH: not shown
VL: B16 VL with F86V, T88D
Kd [6]: 0.3 nM

B35: CAT-2200 designed Vlambda-Ckappa chimeric Fab, design 27 (E83V_D85T_T105E) (Fab, V domains shown)
VH: not shown
VL: B16 VL with F86V
Kd [6]: 0.2 nM

B36: CAT-2200 designed Vlambda-Ckappa chimeric Fab, design 17 (E83F_D85T) (Fab, V domains shown)
VH: not shown
VL: B16 VL with E108T
Kd [6]: 0.3 nM

B37: CAT-2200 designed Vlambda-Ckappa chimeric Fab, design 16 (E83F_V106I) (Fab, V domains shown)
VH: not shown
VL: B16 VL with T88D, E108T, V109I
Kd [6]: 0.3 nM

B38: CAT-2200 designed Vlambda-Ckappa chimeric Fab, design 35 (E83A) (Fab, V domains shown)
VH: not shown
VL: B16 VL with F86A, T88D, E108T
Kd [6]: 0.2 nM

B39: CAT-2200 designed Vlambda-Ckappa chimeric Fab, design 26 (E83V_D85T) (Fab, V domains shown)
VH: not shown
VL: B16 VL with F86V, E108T
Kd [6]: 0.3 nM

B40: CAT-2200 designed Vlambda-Ckappa chimeric Fab, design 34 (E83I_D85T_T105E_V106I) (Fab, V domains shown)
VH: not shown
VL: B16 VL with F86I, V109I
Kd [6]: 0.2 nM

B41: CAT-2200 designed Vlambda-Ckappa chimeric Fab, design 23 (E83V) (Fab, V domains shown)
VH: not shown
VL: B16 VL with F86V, T88D, E108T
Kd [6]: 0.2 nM

B42: CAT-2200 designed Vlambda-Ckappa chimeric Fab, design 37 (E83A_D85T) (Fab, V domains shown)
VH: not shown
VL: B16 VL with F86A, E108T
Kd [6]: 0.2 nM

B43: CAT-2200 designed Vlambda-Ckappa chimeric Fab, design 25 (E83V_V106I) (Fab, V domains shown)
VH: not shown
VL: B16 VL with F86V, T88D, E108T, V109I
Kd [6]: 0.4 nM

B44: CAT-2200 designed Vlambda-Ckappa chimeric Fab, design 31 (E83I_T105E) (Fab, V domains shown)
VH: not shown
VL: B16 VL with F86I, T88D
Kd [6]: 0.3 nM
